Tested on: Escherichia coli TOP10
Test: shrunken log2 fold change of peptide-encoding DNA abundance (4.5 h post-induction vs induction); higher = less antimicrobial activity (less host growth inhibition)
Details: time post-induction: 4.5 h; library: site-saturation at positions 5, 18, 19, 20
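Also: peptides expressed intracellularly from a pBAD plasmid library in pooled LB shake-flask culture, induced with 0.3% L-arabinose, DNA abundance read by NGS, three biological replicates, DESeq2 with apeglm shrinkage.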

For RRIRRRPPRLPRPRPRPNGAPRP, the “shrunken log2 fold change” value was -0.151.

For RRIRRRPPRLPRPRPRPNGQPRP, the “shrunken log2 fold change” value was -0.00184.

With RRIRRRPPRLPRPRPRPNGYPRP the “shrunken log2 fold change” value was 0.17.

With RRIRRRPPRLPRPRPRPNHAPRP the “shrunken log2 fold change” value was 0.345.

RRIRRRPPRLPRPRPRPNHLPRP was tested, and the “shrunken log2 fold change” value was -0.394.

For RRIRRRPPRLPRPRPRPNKRPRP, the “shrunken log2 fold change” value was -0.0621.

For RRIRRRPPRLPRPRPRPNNFPRP, the “shrunken log2 fold change” value was -0.00104.

In the case of RRIRRRPPRLPRPRPRPNNGPRP, the “shrunken log2 fold change” value is reported as -0.277.

For RRIRRRPPRLPRPRPRPNPSPRP, the “shrunken log2 fold change” value was 0.215.

In the case of RRIRRRPPRLPRPRPRPNPWPRP, the “shrunken log2 fold change” value is reported as 0.231.

RRIRRRPPRLPRPRPRPNPYPRP was tested, and the “shrunken log2 fold change” value was -0.0616.

With RRIRRRPPRLPRPRPRPNQEPRP the “shrunken log2 fold change” value was -0.0479.

In the case of RRIRRRPPRLPRPRPRPNQKPRP, the “shrunken log2 fold change” value is reported as -0.128.

For RRIRRRPPRLPRPRPRPNQPPRP, the “shrunken log2 fold change” value was -0.0317.

With RRIRRRPPRLPRPRPRPNQRPRP the “shrunken log2 fold change” value was 0.269.

RRIRRRPPRLPRPRPRPNQTPRP was tested, and the “shrunken log2 fold change” value was 0.0193.

With RRIRRRPPRLPRPRPRPNQVPRP the “shrunken log2 fold change” value was 0.12.

With RRIRRRPPRLPRPRPRPNRDPRP the “shrunken log2 fold change” value was -0.062.

For RRIRRRPPRLPRPRPRPNREPRP, the “shrunken log2 fold change” value was 0.232.

For RRIRRRPPRLPRPRPRPNSHPRP, the “shrunken log2 fold change” value was -0.11.

For RRIRRRPPRLPRPRPRPNSNPRP, the “shrunken log2 fold change” value was -0.302.

RRIRRRPPRLPRPRPRPNTTPRP was tested, and the “shrunken log2 fold change” value was -0.283.

For RRIRRRPPRLPRPRPRPNVFPRP, the “shrunken log2 fold change” value was 0.426.

For RRIRRRPPRLPRPRPRPNVLPRP, the “shrunken log2 fold change” value was -0.185.

With RRIRRRPPRLPRPRPRPNVNPRP the “shrunken log2 fold change” value was -0.0627.

RRIRRRPPRLPRPRPRPNWHPRP was tested, and the “shrunken log2 fold change” value was 0.151.

In the case of RRIRRRPPRLPRPRPRPNYEPRP, the “shrunken log2 fold change” value is reported as 0.0979.

For RRIRRRPPRLPRPRPRPNYYPRP, the “shrunken log2 fold change” value was -0.333.

For RRIRRRPPRLPRPRPRPPASPRP, the “shrunken log2 fold change” value was 0.615.

With RRIRRRPPRLPRPRPRPPCNPRP the “shrunken log2 fold change” value was 0.36.

With RRIRRRPPRLPRPRPRPPCQPRP the “shrunken log2 fold change” value was 0.767.

RRIRRRPPRLPRPRPRPPCRPRP was tested, and the “shrunken log2 fold change” value was 1.09.

In the case of RRIRRRPPRLPRPRPRPPFAPRP, the “shrunken log2 fold change” value is reported as 0.739.

In the case of RRIRRRPPRLPRPRPRPPGGPRP, the “shrunken log2 fold change” value is reported as 0.348.

In the case of RRIRRRPPRLPRPRPRPPGWPRP, the “shrunken log2 fold change” value is reported as -0.0607.

For RRIRRRPPRLPRPRPRPPHAPRP, the “shrunken log2 fold change” value was 1.52.

RRIRRRPPRLPRPRPRPPHDPRP was tested, and the “shrunken log2 fold change” value was 1.49.

For RRIRRRPPRLPRPRPRPPHKPRP, the “shrunken log2 fold change” value was 1.77.

In the case of RRIRRRPPRLPRPRPRPPILPRP, the “shrunken log2 fold change” value is reported as -0.1.

RRIRRRPPRLPRPRPRPPIPPRP was tested, and the “shrunken log2 fold change” value was 0.271.

For RRIRRRPPRLPRPRPRPPMLPRP, the “shrunken log2 fold change” value was 0.317.

With RRIRRRPPRLPRPRPRPPMQPRP the “shrunken log2 fold change” value was 0.385.

RRIRRRPPRLPRPRPRPPNNPRP was tested, and the “shrunken log2 fold change” value was 0.177.

With RRIRRRPPRLPRPRPRPPPIPRP the “shrunken log2 fold change” value was 0.978.

In the case of RRIRRRPPRLPRPRPRPPPLPRP, the “shrunken log2 fold change” value is reported as 0.963.

In the case of RRIRRRPPRLPRPRPRPPQAPRP, the “shrunken log2 fold change” value is reported as 1.19.

In the case of RRIRRRPPRLPRPRPRPPQMPRP, the “shrunken log2 fold change” value is reported as 1.24.

RRIRRRPPRLPRPRPRPPQSPRP was tested, and the “shrunken log2 fold change” value was 0.846.

For RRIRRRPPRLPRPRPRPPRAPRP, the “shrunken log2 fold change” value was 1.17.

For RRIRRRPPRLPRPRPRPPRIPRP, the “shrunken log2 fold change” value was 1.08.

With RRIRRRPPRLPRPRPRPPSSPRP the “shrunken log2 fold change” value was 0.303.

RRIRRRPPRLPRPRPRPPSYPRP was tested, and the “shrunken log2 fold change” value was 0.26.

In the case of RRIRRRPPRLPRPRPRPPTPPRP, the “shrunken log2 fold change” value is reported as 0.769.

RRIRRRPPRLPRPRPRPPYQPRP was tested, and the “shrunken log2 fold change” value was 0.245.

For RRIRRRPPRLPRPRPRPQAKPRP, the “shrunken log2 fold change” value was 0.418.

In the case of RRIRRRPPRLPRPRPRPQAWPRP, the “shrunken log2 fold change” value is reported as 0.0536.

With RRIRRRPPRLPRPRPRPQCDPRP the “shrunken log2 fold change” value was 0.333.

RRIRRRPPRLPRPRPRPQDFPRP was tested, and the “shrunken log2 fold change” value was -0.078.

With RRIRRRPPRLPRPRPRPQDNPRP the “shrunken log2 fold change” value was -0.668.

RRIRRRPPRLPRPRPRPQEVPRP was tested, and the “shrunken log2 fold change” value was -0.00192.

With RRIRRRPPRLPRPRPRPQGAPRP the “shrunken log2 fold change” value was -0.0933.

RRIRRRPPRLPRPRPRPQHLPRP was tested, and the “shrunken log2 fold change” value was -0.289.

For RRIRRRPPRLPRPRPRPQHNPRP, the “shrunken log2 fold change” value was 0.0256.

For RRIRRRPPRLPRPRPRPQHPPRP, the “shrunken log2 fold change” value was 0.526.

For RRIRRRPPRLPRPRPRPQHVPRP, the “shrunken log2 fold change” value was -0.0783.

RRIRRRPPRLPRPRPRPQHYPRP was tested, and the “shrunken log2 fold change” value was -0.128.

In the case of RRIRRRPPRLPRPRPRPQKLPRP, the “shrunken log2 fold change” value is reported as 0.102.

With RRIRRRPPRLPRPRPRPQLVPRP the “shrunken log2 fold change” value was 0.0448.

RRIRRRPPRLPRPRPRPQMIPRP was tested, and the “shrunken log2 fold change” value was -0.0521.

For RRIRRRPPRLPRPRPRPQNHPRP, the “shrunken log2 fold change” value was -0.191.

With RRIRRRPPRLPRPRPRPQNSPRP the “shrunken log2 fold change” value was -0.266.

With RRIRRRPPRLPRPRPRPQPQPRP the “shrunken log2 fold change” value was 0.354.

For RRIRRRPPRLPRPRPRPQQKPRP, the “shrunken log2 fold change” value was 0.011.

With RRIRRRPPRLPRPRPRPQQNPRP the “shrunken log2 fold change” value was 0.0713.

In the case of RRIRRRPPRLPRPRPRPQRMPRP, the “shrunken log2 fold change” value is reported as 0.13.

With RRIRRRPPRLPRPRPRPQRWPRP the “shrunken log2 fold change” value was -0.0703.

For RRIRRRPPRLPRPRPRPQSCPRP, the “shrunken log2 fold change” value was 0.107.

RRIRRRPPRLPRPRPRPQTVPRP was tested, and the “shrunken log2 fold change” value was -0.0201.

RRIRRRPPRLPRPRPRPQVAPRP was tested, and the “shrunken log2 fold change” value was 0.157.

With RRIRRRPPRLPRPRPRPQVHPRP the “shrunken log2 fold change” value was 0.148.

With RRIRRRPPRLPRPRPRPQVMPRP the “shrunken log2 fold change” value was 0.0874.

For RRIRRRPPRLPRPRPRPQWPPRP, the “shrunken log2 fold change” value was 0.00418.

With RRIRRRPPRLPRPRPRPQWVPRP the “shrunken log2 fold change” value was 0.279.

With RRIRRRPPRLPRPRPRPRAEPRP the “shrunken log2 fold change” value was 0.572.

For RRIRRRPPRLPRPRPRPRARPRP, the “shrunken log2 fold change” value was 0.618.

For RRIRRRPPRLPRPRPRPRDKPRP, the “shrunken log2 fold change” value was 0.126.

In the case of RRIRRRPPRLPRPRPRPRFGPRP, the “shrunken log2 fold change” value is reported as 0.438.

In the case of RRIRRRPPRLPRPRPRPRGKPRP, the “shrunken log2 fold change” value is reported as 0.694.

In the case of RRIRRRPPRLPRPRPRPRGYPRP, the “shrunken log2 fold change” value is reported as 0.398.

With RRIRRRPPRLPRPRPRPRHHPRP the “shrunken log2 fold change” value was 0.0826.

With RRIRRRPPRLPRPRPRPRHKPRP the “shrunken log2 fold change” value was 1.89.

With RRIRRRPPRLPRPRPRPRIQPRP the “shrunken log2 fold change” value was 0.241.

RRIRRRPPRLPRPRPRPRKHPRP was tested, and the “shrunken log2 fold change” value was 0.535.

With RRIRRRPPRLPRPRPRPRKQPRP the “shrunken log2 fold change” value was -0.0686.

RRIRRRPPRLPRPRPRPRKTPRP was tested, and the “shrunken log2 fold change” value was 0.615.

With RRIRRRPPRLPRPRPRPRKYPRP the “shrunken log2 fold change” value was -0.33.

With RRIRRRPPRLPRPRPRPRLSPRP the “shrunken log2 fold change” value was -0.0979.

RRIRRRPPRLPRPRPRPRMPPRP was tested, and the “shrunken log2 fold change” value was 0.381.

With RRIRRRPPRLPRPRPRPRMYPRP the “shrunken log2 fold change” value was -0.152.

For RRIRRRPPRLPRPRPRPRNRPRP, the “shrunken log2 fold change” value was -0.0263.

With RRIRRRPPRLPRPRPRPRNWPRP the “shrunken log2 fold change” value was 0.319.

RRIRRRPPRLPRPRPRPRPNPRP was tested, and the “shrunken log2 fold change” value was 0.624.

For RRIRRRPPRLPRPRPRPRQEPRP, the “shrunken log2 fold change” value was 0.123.

RRIRRRPPRLPRPRPRPRQQPRP was tested, and the “shrunken log2 fold change” value was -0.0361.

For RRIRRRPPRLPRPRPRPRREPRP, the “shrunken log2 fold change” value was 0.435.

In the case of RRIRRRPPRLPRPRPRPRRNPRP, the “shrunken log2 fold change” value is reported as 0.223.

For RRIRRRPPRLPRPRPRPRSHPRP, the “shrunken log2 fold change” value was -0.033.

RRIRRRPPRLPRPRPRPRSPPRP was tested, and the “shrunken log2 fold change” value was 0.49.

RRIRRRPPRLPRPRPRPRVDPRP was tested, and the “shrunken log2 fold change” value was 0.00278.
